Measured values as given in publication PMC6695210, “Bipartite interface of the measles virus phosphoprotein X domain with the large polymerase protein regulates viral polymerase dynamics” (PLoS Pathogens, 2019).

Key:
Experiment in all cases: native gel or EMSA; native PAGE (3–12% Bis-Tris gradient gels, G-250 additive) of cleared lysates of transfected cells, immunoblot; trimeric and dimeric GCN4 variants as mobility reference
[1] = target: MeV P with residues 303–377 replaced by the tetrameric mutant of the yeast GCN4 coiled-coil (measles virus (strain IC-B) | yeast) (UniProt Q9WMB4)
[2] = target: MeV P-GCN4_(303-360), P with OD residues 303–360 replaced by the tetrameric mutant of the yeast GCN4 coiled-coil (measles virus (strain IC-B) | yeast) (UniProt Q9WMB4)
[3] = target: the molecule itself

Molecule: MeV P with residues 303–377 replaced by the tetrameric mutant of the yeast GCN4 coiled-coil (from UniProt Q9WMB4 1-302; Q9WMB4 378-507)
- stoichiometry N [1]: 4

Molecule: MeV P-GCN4_(303-360), P with OD residues 303–360 replaced by the tetrameric mutant of the yeast GCN4 coiled-coil (from UniProt Q9WMB4 1-302; Q9WMB4 361-507)
- stoichiometry N [2]: 4

B1: MeV P (361–364)Ala, P with residues 361–364 substituted with alanines (natural protein, measles virus (strain IC-B), UniProt Q9WMB4 1-507, looked up)
chain: MAEEQARHVKNGLECIRALKAEPIGSLAVEEAMAAWSEISDNPGQDRATCKEEEAGSSGLSKPCLSAIGSTEGGAPRIRGQGSGESDDDAETLGIPSRNLQASSTGLQCYHVYDHSGEAVKGIQDADSIMVQSGLDGDSTLSGGDDESENSDVDIGEPDTEGYAITDRGSAPISMGFRASDVETAEGGEIHELLKLQSRGNNFPKLGKTLNVPPPPNPSRASTSETPIKKGTDARLASFGTEIASLLTGGATQCARKSPSEPSGPGAPAGNVPECVSNAALIQEWTPESGTTISPRSQNNEEGGDYYDDELFSDVQDIKTALAKIHEDNQKIISKLESLLLLKGEVESIKKQINRQNISIAAAAGHLSSIMIAIPGLGKDPNDPTADVELNPDLKPIIGRDSGRALAEVLKKPVASRQLQGMTNGRTSSRGQLLKEFQLKPIGKKVSSAVGFVPDTGPASRSVIRSIIKSSRLEEDRKRYLMTLLDDIKGANDLAKFHQMLMKIIMK
notes: MeV strain IC-B phosphoprotein P; of the old residues only S361 is printed in the text; also called M1; source: transiently transfected cells, in lysate; not shown: HA, C-terminal, kept
- stoichiometry N [3]: 4

B2: MeV phosphoprotein (P), wild type (natural protein)
chain: MAEEQARHVKNGLECIRALKAEPIGSLAVEEAMAAWSEISDNPGQDRATCKEEEAGSSGLSKPCLSAIGSTEGGAPRIRGQGSGESDDDAETLGIPSRNLQASSTGLQCYHVYDHSGEAVKGIQDADSIMVQSGLDGDSTLSGGDDESENSDVDIGEPDTEGYAITDRGSAPISMGFRASDVETAEGGEIHELLKLQSRGNNFPKLGKTLNVPPPPNPSRASTSETPIKKGTDARLASFGTEIASLLTGGATQCARKSPSEPSGPGAPAGNVPECVSNAALIQEWTPESGTTISPRSQNNEEGGDYYDDELFSDVQDIKTALAKIHEDNQKIISKLESLLLLKGEVESIKKQINRQNISISTLEGHLSSIMIAIPGLGKDPNDPTADVELNPDLKPIIGRDSGRALAEVLKKPVASRQLQGMTNGRTSSRGQLLKEFQLKPIGKKVSSAVGFVPDTGPASRSVIRSIIKSSRLEEDRKRYLMTLLDDIKGANDLAKFHQMLMKIIMK
notes: measles virus (MeV) strain IC-B phosphoprotein P, codon-optimized synthetic ORF; ends at residue 507 by the printed limits of P-XD (459–507); also called wild type P; wt P; not shown: HA, C-terminal, kept
- stoichiometry N [3]: 4
